Values quoted from earlier work in patent US9956303B2, “Anti-met therapy for previously diagnosed cancer patients” (GE HEALTHCARE LIMITED, priority 2011, dated 2018).

Key:
[1] = target: T1, c-Met (Homo sapiens, UniProt P08581); parameters: host or cells: NSCLC patients' tumours; details: for median overall-survival: analysed by retrospective IHC of archive biopsy samples, p=0.002
[2] = target: T1, c-Met; details: mouse, in vivo
[3] = target: T2, HGF (Homo sapiens, UniProt P14210); details: combination with ECX
T2 construct: host or cells: patients

[4] = in vivo

T1 sequence (P08581 25-1390): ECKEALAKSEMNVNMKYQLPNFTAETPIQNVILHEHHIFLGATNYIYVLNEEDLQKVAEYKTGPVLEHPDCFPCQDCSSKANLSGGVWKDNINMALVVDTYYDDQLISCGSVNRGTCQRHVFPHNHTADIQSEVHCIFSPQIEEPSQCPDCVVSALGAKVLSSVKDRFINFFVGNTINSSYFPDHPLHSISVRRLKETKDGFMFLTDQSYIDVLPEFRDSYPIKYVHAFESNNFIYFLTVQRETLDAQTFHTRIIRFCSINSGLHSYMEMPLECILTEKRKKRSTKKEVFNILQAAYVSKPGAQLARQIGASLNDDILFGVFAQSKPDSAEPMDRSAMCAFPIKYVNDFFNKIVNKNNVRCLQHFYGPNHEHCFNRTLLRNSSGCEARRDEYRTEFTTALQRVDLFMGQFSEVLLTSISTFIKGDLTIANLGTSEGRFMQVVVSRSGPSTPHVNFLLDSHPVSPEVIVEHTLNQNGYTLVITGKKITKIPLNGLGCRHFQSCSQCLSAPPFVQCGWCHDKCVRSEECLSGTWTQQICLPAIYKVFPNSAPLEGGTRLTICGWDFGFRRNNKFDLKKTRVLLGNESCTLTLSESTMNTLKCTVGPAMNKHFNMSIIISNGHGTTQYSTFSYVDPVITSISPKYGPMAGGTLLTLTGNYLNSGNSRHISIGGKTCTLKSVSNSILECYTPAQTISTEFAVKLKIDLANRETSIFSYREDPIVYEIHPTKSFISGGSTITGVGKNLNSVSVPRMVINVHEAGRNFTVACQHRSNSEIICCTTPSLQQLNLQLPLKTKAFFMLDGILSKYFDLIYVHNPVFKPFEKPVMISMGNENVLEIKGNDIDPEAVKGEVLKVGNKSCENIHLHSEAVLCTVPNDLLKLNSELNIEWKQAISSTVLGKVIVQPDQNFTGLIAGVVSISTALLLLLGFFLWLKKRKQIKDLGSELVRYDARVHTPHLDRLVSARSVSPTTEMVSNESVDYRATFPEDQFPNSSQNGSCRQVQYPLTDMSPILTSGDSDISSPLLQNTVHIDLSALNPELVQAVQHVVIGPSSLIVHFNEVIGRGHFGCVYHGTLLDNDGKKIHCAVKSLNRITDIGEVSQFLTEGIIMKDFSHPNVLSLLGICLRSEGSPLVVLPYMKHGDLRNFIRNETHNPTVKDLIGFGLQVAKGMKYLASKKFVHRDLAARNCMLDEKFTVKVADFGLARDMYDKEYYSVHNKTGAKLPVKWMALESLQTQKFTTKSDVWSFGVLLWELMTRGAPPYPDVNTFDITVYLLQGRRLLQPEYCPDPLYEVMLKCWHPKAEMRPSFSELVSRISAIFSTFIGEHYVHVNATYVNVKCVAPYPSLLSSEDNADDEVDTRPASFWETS
T2 sequence (P14210 32-728): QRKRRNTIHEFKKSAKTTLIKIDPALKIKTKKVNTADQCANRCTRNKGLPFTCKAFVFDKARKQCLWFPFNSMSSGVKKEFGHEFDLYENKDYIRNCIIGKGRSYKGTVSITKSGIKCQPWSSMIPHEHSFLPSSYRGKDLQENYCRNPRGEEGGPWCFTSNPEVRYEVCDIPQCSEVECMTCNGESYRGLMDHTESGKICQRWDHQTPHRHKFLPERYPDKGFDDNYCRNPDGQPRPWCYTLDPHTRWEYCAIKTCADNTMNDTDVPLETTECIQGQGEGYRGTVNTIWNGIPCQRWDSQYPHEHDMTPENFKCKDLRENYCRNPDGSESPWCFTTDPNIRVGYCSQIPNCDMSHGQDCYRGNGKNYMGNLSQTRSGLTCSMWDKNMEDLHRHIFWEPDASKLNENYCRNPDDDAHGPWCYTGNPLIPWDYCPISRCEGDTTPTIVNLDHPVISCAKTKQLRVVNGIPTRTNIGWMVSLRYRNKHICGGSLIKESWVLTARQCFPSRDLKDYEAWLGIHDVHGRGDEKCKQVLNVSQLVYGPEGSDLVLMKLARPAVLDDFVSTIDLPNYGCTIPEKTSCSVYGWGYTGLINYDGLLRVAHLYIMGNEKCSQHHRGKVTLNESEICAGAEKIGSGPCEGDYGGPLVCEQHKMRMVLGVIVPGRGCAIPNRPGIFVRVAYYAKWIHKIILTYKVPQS

Molecule: C#Cc1cccc(Nc2ncnc3cc(OCCOC)c(OCCOC)cc23)c1 [Erlotinib, reference compound]
- median overall-survival [1]: 3.8 months

Molecule: MetMab™ labelled with ^76Br or ^89Zr: anti-c-Met antibody (MetMab) labelled with 76Br or 89Zr for molecular imaging of c-Met
- tumour uptake and clearance [2]: rapid tumour uptake and slow clearance

Molecule: rilotumumab: HGF antibody (Amgen)
- median overall survival vs placebo and ECX ([3]; c-Met high tumours (>50% tumour cells positive)): improved median overall survival
- overall survival vs placebo and ECX ([3]; c-Met low tumours (≤50% positive)): trend toward unfavourable overall survival

Molecule: MetMAb: a monoclonal antibody blocking c-Met (Roche)
- combined elimination half-life [4]: 190 to 288 h
- outcome, low c-Met expression ([1]; MetMAb in combination with Erlotinib compared to Erlotinib alone): worse outcome
- median overall-survival [1]: 12.6 months
- outcome, patient group as a whole ([1]; patients with high and low c-Met expression, MetMAb+Erlotinib vs placebo+Erlotinib): no differences between the two treatments
